# Measured values as given in paper PMC7952403 (Nature Communications, 2021).
# Positions count from the first letter of the chain named.
# B1: STE73-6C1 scFv-Fc (scFv, V domains shown)
# VH: QVQLVQSGGGVVQPGRSLRLSCAASGFTFSSYAMHWVRQAPGKGLEWVAVISYDGSNKYYADSVKGRFTISRDNSKNTLYLQMNSLRAEDTAVYYCARSYVGGMDVWGQGTTVTVSS
# VL: QLVLTQSPSVSGAPGQSVTISCTGTDSNIGAGYNVHWYQQLPGAAPKLIISYTDNRPSGVPDRFSGSKSGTSASLAITGLQAEDEADYYCQSSDRTLVGSLFGTGTKVTVL
# notes: also called scFv-hFc; source: Expi293F, transient transfection, purified (Protein A)
# B2: STE73-9G3 scFv-Fc (scFv, V domains shown)
# VH: QVQLQESGGGLVQPGGSLRLSCAASGFTFSSYAMSWVRQAPGKGLEWVSAISGSGGSTYYADSVKGRFTISRDNSKNTLYLQMNSLRAEDTAVYYCARDLVLGSGSSNDWGRGTLVTVSS
# VL: B1 VL with L2P, S7P
# notes: as for B1
# B3: STE72-1B6 scFv-Fc (scFv, V domains shown)
# VH: QVKLVQSGGGLVQPGGSLRLSCAASGFTFSSYAMSWVRQAPGKGLEWVSGISGSGGSTYYADSVKGRFTISRDNSKNTLYLQVNSLRAEDTAVYYCAKAPYGDFRGLWYFDYWGQGTLVTVSS
# VL: DIVMTQSPFSVSASVGDRVTISCRASQDIRSWLAWYQQKPGKAPQLLIYDASSLQSGVPSRFSGSGSGTDFTLTISSLQPEDFATYYCQQADSVPLTFGGGTKVEIQ
# notes: as for B1
# B4: STE73-6C8 scFv-Fc (scFv, V domains shown)
# VH: QVQLQQSGAEVKKPGSSVKVSCKASGGTFSSYAISWVRQAPGQGLEWMGRIIPILGIANYAQKFQGRVTITADKSTSTAYMELSSLRSEDTAVYYCARSIAALNWFDPWGQGTLVTVSS
# VL: NFMLTQPHSVSESPGKTVTIPCTGSRGSIANNYVQWYRQRPGRAPTTVIFEDNQRPSGVPDRFSGSIDRSSNSASLTISGLETEDEADYYCQSYDGSNVIFGGGTKLTVL
# notes: as for B1
# B5: STE73-2C2 scFv-Fc (scFv, V domains shown)
# VH: QVQLVESGGGLVQPGGSLRLSCAASGITVSSNYMSWVRQAPGKGLEWVSVIYSGGSTFYADSVKGRFTISRDNSKNTLYLQMNSLRAEDTGVYYCARGHDNLDYWGQGTLVTVSS
# VL: LPVLTQPHSVSESPGKTVIISCTGSSDSIASNYVQWYQQRPGSAPTTVIYEDNKRPSGVPDRFSGSTDSSSNSASLTISGLKTEDEAEYYCQSYDSNNHWVFGGGTKLTVL
# notes: as for B1
# B6: STE73-2B2 scFv-Fc (scFv, V domains shown)
# VH: QVQLVQSGAEVKKPGASVKVSCKASGYTFTGYYMHWVRQAPGQGLEWMGWINPNSGGTNYAQKFQGRVTITRDTSASTAYMELSSLRSEDTAVYYCARVSGWYFGAFDIWGQGTMVTVSS
# VL: LPVLTQPHSLSESPGKTVNISCTGSSGSIASNYVQWYQQRPGSAPTTVIYEDSHRPSGVPDRFSGSIDSSSNSASLSISGLKTEDEADYYCQSYDSSNNQWVFGGGTKLTVL
# notes: as for B1
# B7: STE72-8E1 scFv-Fc (scFv, V domains shown)
# VH: QVQLQEWGPGLVQPSETLSLTCTVSGGSISSGGYYWSWIRQHPGKGLEWIGRIYPSGSTNYNPSLKSRVTMSVDTSENQFSLKLSSVTAADTAVYYCARGGPKRSGSPFDVWGQGTMVTVSS
# VL: EVVMTQSPSTLSASVGDRVTITCRASQTFGPWLAWYQQKPGQAPKLLIYMASELESGVPSRFSGSGSGTEFTLSISSLQPDDFATYYCQQYNTFSPWTFGQGTKVDIK
# notes: as for B1
# B8: STE72-4C10 scFv-Fc (scFv, V domains shown)
# VH: EVQLQESGGGVVQPGRSLRLSCAASGFTFSSYAMHWVRQAPGKGLEWVAVISYDGSNKYYADSVKGRFTISRDNSKNTLYLQMNSLRAEDTAVYYCAREYSSSWYGLGAFDIWGQGTMVTVSS
# VL: DIRLTQSPSSLSASVGDRVTITCRASQNIHYYLNWYQQKPGKAPSLLVYGASSLQSGVPSRFSGSGSGTEYTLTISSLQPEDFATYFCQQSFKSPATFGQGTKVDIK
# notes: as for B1
# B9: STE72-2G4 scFv-Fc (scFv, V domains shown)
# VH: QVQLVQSGAEVKKPGASVKVSCKASGYTFTSYGISWVRQAPGQGLEWMGWISAYNGNTNYAQKLQGRVTMTTDTSTSTAYMELRSLRSDDTAVYYCARFFYDSSGYSTDYWGQGTLVTVSS
# VL: ETTLTQSPAFMSVTPGDRAILSCRASQSVDSHLAWYHQKPGQPPRLLIYGASTRATGIPARFSGSRSGTEFTLTISGLQSEDLGVYYCQQYASWPPGYNFGQGTKLEIK
# notes: as for B1
# B10: STE72-4E12 scFv-Fc (scFv, V domains shown)
# VH: QVQLVQSGAEVKKPGASVKVSCKASGYTFTSYYMHWVRQAPGQGLEWMGIINPSGGSTSYAQKFQGRVTMTRDTSTSTVYMELSSLRSEDTAVYYCARDLSGGLDYWGQGTLVTVSS
# VL: ETTLTQSPATLSVSPGERVTLACRAGQTISSKLAWYRQKPGQAPSLLIYDASTRATGVPARFSGSGSGTEFTLTISSLQSEDFAVYYCQQYSDWPPTFGQGTKVEIK
# notes: as for B1
# B11: STE73-2E9 scFv-Fc (scFv, V domains shown)
# VH: QVQLVQSGAEVKKPGASVKVSCKASGYTFTSYGISWVRQAPGQGLEWMGWISAYNGNTNYAQKLQGRVTMTTDTSTSTAYMELRSLRSDDTAVYYCARGKFDYWGQGTLVTVSS
# VL: QSVLTQPPSVSEAPSQRVTISCSGSSSNIGNNAVNWYQQLPGKAPKLLIYYDDVLPSGVSDRFSGSKSGTSASLAISGLQSGDEADYYCAAWDDSLSGVVFGGGTKLTVL
# notes: as for B1
# B12: STE73-2G8 scFv-Fc (scFv, V domains shown)
# VH: QVQLVQSGGGLVKPGGSLRLSCAASGITVSSNYMSWVRQAPGKGLEWVSILYSGGTTFYTDSVKGRFTISRDNSKNTLHLQMNSLRAEDTAVYYCARWSGTYYDYWGQGTLVTVSS
# VL: SSELTQDPAVSVALGQTVRITCQGDSLRSYYASWYQQKPGQAPVLVIYGKNNRPSGIPDRFSGSSSGNTASLTITGAQAEDEADYYCNSRDSTNDPVLFGAGTKLTVL
# notes: as for B1
# B13: STE70-1E12 scFv-Fc (scFv, V domains shown)
# VH: QMQLVQSGAEVKKPGASVKVSCKASGYTFTGYYMHWVRQAPGQGLEWMGRINPNSGGTNYAQKFQGRVTMTRDTSTSTAYMELSRLRSDDTAVYYCVRDGYNFNNWFDPWGQGTLVTVSS
# VL: NFMLTQPHSVSGSPGETITISCTGSGGSIASNYVQWYRQRPGSAPTIVIYEDTQRPSGVPDRFSGSIDSSSNSASLTISGLKTEDEADYYCQSSESTNHVMFGGGSKLTVL
# notes: as for B1
# B14: STE73-6C1 IgG (antibody, V domains shown)
# VH: B1 VH
# VL: B1 VL
# notes: source: Expi293F, transfected, purified (Protein A); copies: 2 + 2
# B15: STE73-9G3 IgG (antibody, V domains shown)
# VH: B2 VH
# VL: B1 VL with L2P, S7P
# notes: as for B14
# B16: STE72-1B6 IgG (antibody, V domains shown)
# VH: B3 VH
# VL: B3 VL
# notes: as for B14
# B17: STE73-6C8 IgG (antibody, V domains shown)
# VH: B4 VH
# VL: B4 VL
# notes: as for B14
# B18: STE72-1G5 scFv-Fc (scFv, V domains shown)
# VH: QVQLVQSGAEVKKPGASVKVSCKASGGTFSSYAISWVRQAPGQGLEWMGGIIPIFGTANYAQKFQGRVTITADESTSTAYMELSSLRSEDTAVYYCAVGGVQLWLTYWGQGTLVTVSS
# VL: ETTLTQSPGALSLSPGERATLSCRVSQSLSSNSLAWYQQKPGQAPRLLIYDTSIRATGIPDRFSGSGSGTDFTLTISRLEPEDFAVYYCHKYGSWPRTFGQGTKVEV
# notes: as for B1
# B19: STE72-4E12 IgG (antibody, V domains shown)
# VH: B10 VH
# VL: B10 VL
# notes: as for B14
# B20: STE73-2G8 IgG (antibody, V domains shown)
# VH: B12 VH
# VL: B12 VL
# notes: as for B14
# B21: STE70-1E12 IgG (antibody, V domains shown)
# VH: B13 VH
# VL: B13 VL
# notes: as for B14
# Biological target: T1, SARS-CoV-2 RBD-SD1 with murine IgG2a Fc part, produced in High Five cells (SARS-CoV-2, UniProt P0DTC2)
# T1 construct: source: High Five insect cells, transient transfection, purified (Protein A)
# Assay: flow cytometry on cells
# Details: both partners purified
row,Binder,IC50 [nM]
1,B1,4.1
2,B2,3.4
3,B3,4.8
4,B4,5.4
5,B5,3
6,B6,1.7
7,B7,5.6
8,B8,3.5
9,B9,3.7
10,B10,3
11,B11,3.4
12,B12,2.8
13,B13,3.2

# Biological target: T1, SARS-CoV-2 RBD-SD1 with murine IgG2a Fc …
# Assay: ELISA
# Details: both partners purified
row,Binder,EC50 [nM]
1,B1,0.6
2,B14,14.1
3,B15,0.4
4,B2,0.4
5,B3,0.5
6,B16,1.1
7,B4,1.1
8,B17,2.9
9,B18,2.8
10,B5,3.1
11,B6,0.2
12,B7,0.4
13,B8,0.5
14,B9,0.2
15,B10,1.5
16,B19,1.6
17,B12,0.2
18,B20,0.8
19,B13,0.3
20,B21,0.3
